Experimental data from patent US20230304075, “NUCLEIC ACID-BASED BIOSENSOR AND ASSOCIATED METHODS” (FACible BioDiagnostics LLC, published 2023).

Key:
[1] = target: SARS-CoV-2 spike S2 protein (SARS-CoV-2, UniProt P0DTC2 P0DTC2:686-1213)
[2] = target: SARS-CoV-2 spike S1 protein (SARS-CoV-2, UniProt P0DTC2 P0DTC2:14-685)

Binder	binding result [1]	binding result [2]
Rho91 (DAF1-4560c-17) (ssRNA) RNA: GGCGAUGCUAGGCUACGACUAGGCCUGAGAAUACUAGUCAAAGACGAUCGCUCGCUUCGGCGAUGAUGGAGAGGCGCAAGGUUAACCGCCUCAGCGUUCAAGCAAAAGAACCCUGUUUGGCUCACCGGGUCCUGCGCAU	binds	no binding
Rho94 (DAF2-30e-17) (ssRNA) RNA: GGUAGCCCUGCCCGGUGUACCUGAGCCUAGCUCAACGACUCGCUUCGGCGAUGAUGGAGAGGCGCAAGGUUAACCGCCUCAGUCGAAUGGGUACACCUGGCAGUCCGGACAUGCAU	binds	no binding
